Measurements from patent publication US11499162B2, “Plants having increased tolerance to herbicides” (BASF SE, priority 2016, dated 2022).

Type: biochemical
Settings: pH 7.2
Method: EXAMPLE 3: Protein Purification. TriA and variants thereof were produced in E. coli BL21(DE3) Gold (Agilent Technologies, Germany). Therefore E. coli was transformed with appropriate pET24d N-HIS tag expression vector and chaperone plasmid pGro7 (chaperones groEL and groES). Bacterial strains were grown at 30° C. in 100 mL LB for 20 h and protein expression induced with 0.1 mM IPTG at 25° C. for 20 hs. Cells were harvested by centrifugation at 3000 rpm at 4° C. for 20 min, resuspended in Bug Buster protein extraction reagent (Novagen, Germany) according to manufactures instructions. Lysates were clarified by centrifugation. Samples of bovine serum albumin ([…]) were loaded onto each gel analyzed by densitometry to provide an internal standard. Protein determinations were verified using Coomassie protein assay dye, according to manufactures instruction (Thermo Scientific; USA). The HIS-tagged enzymes were purified by metal ion affinity chromatography using Ni-IDA 1000 kit (Macherey-Nagel, Germany) following manufactures instructions. Protein purity was accessed by SDS-PAGE using NuPAGE Novex 4-12% Bis-Tris pre-cast gels (Life Technologies; USA) stained with Coomassie Brilliant Blue (Serva, Germany). Protein concentrations were estimated by measuring absorbance at 280 nm using Lambda Bio+(Perkin Elmer, USA). EXAMPLE 4: Enzyme kinetics. Resting cell suspension containing triA gene were incubated with various azines, melamine and atrazine and the culture filtrate was analyzed by UPLC-HR-MS. Substrates were obtained either from Sigma-Aldrich or synthesized internally. Synthetic standards and enzyme reaction products were analysed by UPLC-HR-MS (Thermo/Dionex UPLC UltiMate3000 coupled to a QExactive high resolution mass spectrometer). A Waters Acquity HSS T3 column (2.1 mm; 100 mm; […]) was used with a mobile phase water/acetonitrile (0.1% formic acid) with a flow rate of […]. Enzymes were used solved 25 mM sodium phosphate buffer (pH 7.2) with substrate concentration in the range of 1 nM to 10 nM at 30° C. Over time, the original azine peak disappeared whereas the formed OH-Metabolite (reaction product) increased. The product was identified by determination of the exact formula and by analysis of the accurate MS-MS fragments. Moreover for some of the formed products authentic standards were co-eluted. Degradation in % was calculated against the cells harboring the empty vector as control.

Molecule	Degradation in % of 6-cyclopentyl-N4-(2,3,4,5,6-pentafluorophenyl)-1,3,5-triazine-2,4-diamine [%]	Degradation in % of Melamine [%]
S301V: mutated TriA variant of SEQ ID NO: 2 (protein, Pseudomonas) MQTLSIQHGTLVTMDQYRRVLGDSWVHVQDGRIVALGVHAESVPPPADRVIDARGKVVLPGFINAHTHVNQILLRGGPSHGRQLYDWLFNVLYPGQKAMRPEDVAVAVRLYCAEAVRSGITTINDNADSAIYPGNIEAAMAVYGEVGVRVVYARMFFDRMDGRIQGYVDALKARSPQVELCSIMEETAVAKDRITALSDQYHGTAGGRISVWPAPAITPAVTVEGMRWAQAFARDRAVMWTLHMAESDHDERLHWMSPAEYMECYGLLDERLQVAHCVYFDRKDVRLLHRHNVKVASQVVVNAYLGSGVAPVPEMVERGMAVGIGTDDGNCNDSVNMIGDMKFMAHIHRAVHRDADVLTPEKILEMATIDGARSLGMDHEIGSIETGKRADLILLDLRHPQTTPHHHLAATIVFQAYGNEVDTVLIDGNVVMENRRLSFLPPERELAFLEEAQSRATAILQRANMVANPAWRSL	0	0
Q71T: mutated TriA variant of SEQ ID NO: 2 (protein, Pseudomonas) MQTLSIQHGTLVTMDQYRRVLGDSWVHVQDGRIVALGVHAESVPPPADRVIDARGKVVLPGFINAHTHVNTILLRGGPSHGRQLYDWLFNVLYPGQKAMRPEDVAVAVRLYCAEAVRSGITTINDNADSAIYPGNIEAAMAVYGEVGVRVVYARMFFDRMDGRIQGYVDALKARSPQVELCSIMEETAVAKDRITALSDQYHGTAGGRISVWPAPAITPAVTVEGMRWAQAFARDRAVMWTLHMAESDHDERLHWMSPAEYMECYGLLDERLQVAHCVYFDRKDVRLLHRHNVKVASQVVSNAYLGSGVAPVPEMVERGMAVGIGTDDGNCNDSVNMIGDMKFMAHIHRAVHRDADVLTPEKILEMATIDGARSLGMDHEIGSIETGKRADLILLDLRHPQTTPHHHLAATIVFQAYGNEVDTVLIDGNVVMENRRLSFLPPERELAFLEEAQSRATAILQRANMVANPAWRSL	0	0
Y304K: mutated TriA variant of SEQ ID NO: 2 (protein, Pseudomonas) MQTLSIQHGTLVTMDQYRRVLGDSWVHVQDGRIVALGVHAESVPPPADRVIDARGKVVLPGFINAHTHVNQILLRGGPSHGRQLYDWLFNVLYPGQKAMRPEDVAVAVRLYCAEAVRSGITTINDNADSAIYPGNIEAAMAVYGEVGVRVVYARMFFDRMDGRIQGYVDALKARSPQVELCSIMEETAVAKDRITALSDQYHGTAGGRISVWPAPAITPAVTVEGMRWAQAFARDRAVMWTLHMAESDHDERLHWMSPAEYMECYGLLDERLQVAHCVYFDRKDVRLLHRHNVKVASQVVSNAKLGSGVAPVPEMVERGMAVGIGTDDGNCNDSVNMIGDMKFMAHIHRAVHRDADVLTPEKILEMATIDGARSLGMDHEIGSIETGKRADLILLDLRHPQTTPHHHLAATIVFQAYGNEVDTVLIDGNVVMENRRLSFLPPERELAFLEEAQSRATAILQRANMVANPAWRSL	0	2
N302E: mutated TriA variant of SEQ ID NO: 2 (protein, Pseudomonas) MQTLSIQHGTLVTMDQYRRVLGDSWVHVQDGRIVALGVHAESVPPPADRVIDARGKVVLPGFINAHTHVNQILLRGGPSHGRQLYDWLFNVLYPGQKAMRPEDVAVAVRLYCAEAVRSGITTINDNADSAIYPGNIEAAMAVYGEVGVRVVYARMFFDRMDGRIQGYVDALKARSPQVELCSIMEETAVAKDRITALSDQYHGTAGGRISVWPAPAITPAVTVEGMRWAQAFARDRAVMWTLHMAESDHDERLHWMSPAEYMECYGLLDERLQVAHCVYFDRKDVRLLHRHNVKVASQVVSEAYLGSGVAPVPEMVERGMAVGIGTDDGNCNDSVNMIGDMKFMAHIHRAVHRDADVLTPEKILEMATIDGARSLGMDHEIGSIETGKRADLILLDLRHPQTTPHHHLAATIVFQAYGNEVDTVLIDGNVVMENRRLSFLPPERELAFLEEAQSRATAILQRANMVANPAWRSL	1	8
ΔA170_S182: TriA deletion variant of SEQ ID NO: 2 (protein, Pseudomonas) MQTLSIQHGTLVTMDQYRRVLGDSWVHVQDGRIVALGVHAESVPPPADRVIDARGKVVLPGFINAHTHVNQILLRGGPSHGRQLYDWLFNVLYPGQKAMRPEDVAVAVRLYCAEAVRSGITTINDNADSAIYPGNIEAAMAVYGEVGVRVVYARMFFDRMDGRIQGYVDIMEETAVAKDRITALSDQYHGTAGGRISVWPAPAITPAVTVEGMRWAQAFARDRAVMWTLHMAESDHDERLHWMSPAEYMECYGLLDERLQVAHCVYFDRKDVRLLHRHNVKVASQVVSNAYLGSGVAPVPEMVERGMAVGIGTDDGNCNDSVNMIGDMKFMAHIHRAVHRDADVLTPEKILEMATIDGARSLGMDHEIGSIETGKRADLILLDLRHPQTTPHHHLAATIVFQAYGNEVDTVLIDGNVVMENRRLSFLPPERELAFLEEAQSRATAILQRANMVANPAWRSL	2	0
ΔS129_A130: TriA deletion variant of SEQ ID NO: 2 (protein, Pseudomonas) MQTLSIQHGTLVTMDQYRRVLGDSWVHVQDGRIVALGVHAESVPPPADRVIDARGKVVLPGFINAHTHVNQILLRGGPSHGRQLYDWLFNVLYPGQKAMRPEDVAVAVRLYCAEAVRSGITTINDNADIYPGNIEAAMAVYGEVGVRVVYARMFFDRMDGRIQGYVDALKARSPQVELCSIMEETAVAKDRITALSDQYHGTAGGRISVWPAPAITPAVTVEGMRWAQAFARDRAVMWTLHMAESDHDERLHWMSPAEYMECYGLLDERLQVAHCVYFDRKDVRLLHRHNVKVASQVVSNAYLGSGVAPVPEMVERGMAVGIGTDDGNCNDSVNMIGDMKFMAHIHRAVHRDADVLTPEKILEMATIDGARSLGMDHEIGSIETGKRADLILLDLRHPQTTPHHHLAATIVFQAYGNEVDTVLIDGNVVMENRRLSFLPPERELAFLEEAQSRATAILQRANMVANPAWRSL	3	0
ΔA130_I131: TriA deletion variant of SEQ ID NO: 2 (protein, Pseudomonas) MQTLSIQHGTLVTMDQYRRVLGDSWVHVQDGRIVALGVHAESVPPPADRVIDARGKVVLPGFINAHTHVNQILLRGGPSHGRQLYDWLFNVLYPGQKAMRPEDVAVAVRLYCAEAVRSGITTINDNADSYPGNIEAAMAVYGEVGVRVVYARMFFDRMDGRIQGYVDALKARSPQVELCSIMEETAVAKDRITALSDQYHGTAGGRISVWPAPAITPAVTVEGMRWAQAFARDRAVMWTLHMAESDHDERLHWMSPAEYMECYGLLDERLQVAHCVYFDRKDVRLLHRHNVKVASQVVSNAYLGSGVAPVPEMVERGMAVGIGTDDGNCNDSVNMIGDMKFMAHIHRAVHRDADVLTPEKILEMATIDGARSLGMDHEIGSIETGKRADLILLDLRHPQTTPHHHLAATIVFQAYGNEVDTVLIDGNVVMENRRLSFLPPERELAFLEEAQSRATAILQRANMVANPAWRSL	0	3
